{
  "source": "paper PMC4260750",
  "biological_target": "ADAM10 (endogenous, rat brain) (UniProt Q10743)",
  "test": "GST pull-down from rat brain homogenate",
  "details": "reference: GST-SAP97wt, PKC-treated; sites T629",
  "data": [
    {"substance": "SAP97 (GST-SAP97 and YFP-SAP97 constructs) (from UniProt Q62696) GST-SAP97-T629A, PKC-treated", "values": [
      {"measurement": "binding against the reference", "result": "weaker"}
    ]}
  ]
}
